# Publication PMC3148250, “Structural Basis for Sequence Specific DNA Binding and Protein Dimerization of HOXA13” (PLoS ONE, 2011)
# Columns and labels:
# [1] = target: the molecule itself; test: SEC-MALS; A13DBD bound to 11-mer DNA duplex; Superdex 75 HR 10/30 at 4°C, calibrated with mass standards, in line with MALS and refractive index; mass as a function of protein concentration; dimer to monomers
# [2] = target: the molecule itself; test: 15N NMR relaxation (rotational correlation time); A13DBD bound to 11-mer DNA duplex, about 0.5 mM, 310 K, 20 mM NaPO4, 5 mM MgCl2, pH 6.0; R2/R1 gives the rotational correlation time and a spherical mass
# [3] = target: the molecule itself; test: not stated; K343E mutant of A13DBD; the method is not named for this mutant (the neighbouring mutants were tested by SEC/MALS of the DNA complex)
protein,measurement,setting,value
"HOXA13 DNA binding domain (A13DBD), wild type (domain or fragment, numbers count on: GenBank AAB03322.1; The introduction gives residues 314-386 for A13DBD, the methods G320-S386; Cloned in pET-15b; also called HOXA13 homeodomain; WT; source: E. coli BL21(DE3), purified (His-tag purification, thrombin cleavage, Superdex-75)) not shown",Kd,[1],< 500 nM
same,stoichiometry N,[2],2
"HOXA13 DNA binding domain (A13DBD) F344A (domain or fragment, numbers count on: GenBank AAB03322.1; Made by QuikChange mutagenesis of pHisA13DBD; The luciferase assay used the same mutation in full-length HOXA13 (pCAGGS-HOXA13) in NG108-15 cells; source: E. coli BL21(DE3), purified (His-tag purification, thrombin cleavage, Superdex-75)) not shown",fold weakening of the dimerization affinity against wild type,[1],≥ 10 fold
"HOXA13 DNA binding domain (A13DBD) K343E (domain or fragment, numbers count on: GenBank AAB03322.1; source: E. coli BL21(DE3), purified (His-tag purification, thrombin cleavage, Superdex-75)) not shown",fold lowering of the dimerization affinity against wild type,[3],~5 fold
